Source: patent US20250057776A1

Target: human integrin β5 (human) (UniProt P18084)
Experiment: cell-based or functional assay

Chain of UniProt P18084 (P18084 24-799 limits assumed): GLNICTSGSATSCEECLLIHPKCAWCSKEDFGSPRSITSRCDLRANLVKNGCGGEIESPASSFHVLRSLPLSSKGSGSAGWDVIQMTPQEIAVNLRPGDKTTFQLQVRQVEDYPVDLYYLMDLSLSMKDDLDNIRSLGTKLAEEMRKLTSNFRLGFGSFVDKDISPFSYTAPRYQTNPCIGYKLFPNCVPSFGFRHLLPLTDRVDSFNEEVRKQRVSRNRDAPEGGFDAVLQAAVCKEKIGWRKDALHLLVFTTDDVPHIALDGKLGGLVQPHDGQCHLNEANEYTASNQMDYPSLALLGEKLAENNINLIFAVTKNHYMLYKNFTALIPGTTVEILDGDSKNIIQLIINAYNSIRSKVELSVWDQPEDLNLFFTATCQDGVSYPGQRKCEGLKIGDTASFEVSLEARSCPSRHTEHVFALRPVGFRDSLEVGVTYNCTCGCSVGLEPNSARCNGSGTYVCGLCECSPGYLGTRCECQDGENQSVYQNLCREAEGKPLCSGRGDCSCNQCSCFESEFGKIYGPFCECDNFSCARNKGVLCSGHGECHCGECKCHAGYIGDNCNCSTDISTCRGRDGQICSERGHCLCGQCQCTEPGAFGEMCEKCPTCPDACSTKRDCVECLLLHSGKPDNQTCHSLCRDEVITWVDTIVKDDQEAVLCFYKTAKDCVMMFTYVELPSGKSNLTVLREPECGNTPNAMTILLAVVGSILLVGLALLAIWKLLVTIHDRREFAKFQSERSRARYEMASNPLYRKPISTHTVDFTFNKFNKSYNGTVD

- Brightness (integration, A.U.) of plate of HPF cells after exosome introduction; integrin β5-introduced exosome + anti-integrin β5 antibodies (6.1 × 10^6 without antibodies): 5.1e+06 A.U.
Substance: anti-integrin β5 antibodies (model number D24A5, rabbit monoclonal antibodies #3629, commercially available from Cell Signaling Technology) (antibody)
